From IntAct's records for PubMed 20691684

B1: UBX domain-containing protein 2B (Mus musculus), Q0KL01 (parent)
chain: MAEGGRAEPEEQERGSSRPRPPSARDLQLALAELYEDEMKCKSSKPDRSTPATCRSPRTPPHRLYSGDHKYDGLHIVQPPTGKIVNELFKEAREHGAVPLNEATRSSREDKTKSFTGGGYRLGNSFYKRSEYIYGENQLQDVQVLLKLWRNGFSLDDGELRPYSDPTNAQFLESVKRGETPLELQRLVHGAQVNLDMEDHQDQEYIKPRLRFKAFSGEGQKLGSLTPEIVSTPSSPEEEDKSILNAAVLIDDSMPTTKIQIRLADGSRLVQRFNSTHRILDVRDFIVRSRPEFATTDFILVTSFPSKELTDETVTLQEADILNTVILQQLK
B2: NSFL1 cofactor p47 (Rattus norvegicus (Rat)), O35987 (parent)
chain: MAEERQDALREFVAVTGAEEDRARFFLESAGWDLQIALASFYEDGGDEDIVTISQATPSSVSRGTAPSDNRVTSFRDLIHDQDEEEEEEEGQRFYAGGSERSGQQIVGPPRKKSPNELVDDLFKGAKEHGAVAVERVTKSPGETSKPRPFAGGGYRLGAAPEEESAYVAGERRRHSGQDVHVVLKLWKTGFSLDNGDLRSYQDPSNAQFLESIRRGEVPAELRRLAHGGQVNLDMEDHRDEDFVKPKGAFKAFTGEGQKLGSTAPQVLNTSSPAQQAENEAKASSSILINEAEPTTNIQIRLADGGRLVQKFNHSHRISDIRLFIVDARPAMAATSFVLMTTFPNKELADENQTLKEANLLNAVIVQRLT

Variants of: B1
Settings: with tera_rat Vcp
Target sequence in this assay (P46462 whole entry): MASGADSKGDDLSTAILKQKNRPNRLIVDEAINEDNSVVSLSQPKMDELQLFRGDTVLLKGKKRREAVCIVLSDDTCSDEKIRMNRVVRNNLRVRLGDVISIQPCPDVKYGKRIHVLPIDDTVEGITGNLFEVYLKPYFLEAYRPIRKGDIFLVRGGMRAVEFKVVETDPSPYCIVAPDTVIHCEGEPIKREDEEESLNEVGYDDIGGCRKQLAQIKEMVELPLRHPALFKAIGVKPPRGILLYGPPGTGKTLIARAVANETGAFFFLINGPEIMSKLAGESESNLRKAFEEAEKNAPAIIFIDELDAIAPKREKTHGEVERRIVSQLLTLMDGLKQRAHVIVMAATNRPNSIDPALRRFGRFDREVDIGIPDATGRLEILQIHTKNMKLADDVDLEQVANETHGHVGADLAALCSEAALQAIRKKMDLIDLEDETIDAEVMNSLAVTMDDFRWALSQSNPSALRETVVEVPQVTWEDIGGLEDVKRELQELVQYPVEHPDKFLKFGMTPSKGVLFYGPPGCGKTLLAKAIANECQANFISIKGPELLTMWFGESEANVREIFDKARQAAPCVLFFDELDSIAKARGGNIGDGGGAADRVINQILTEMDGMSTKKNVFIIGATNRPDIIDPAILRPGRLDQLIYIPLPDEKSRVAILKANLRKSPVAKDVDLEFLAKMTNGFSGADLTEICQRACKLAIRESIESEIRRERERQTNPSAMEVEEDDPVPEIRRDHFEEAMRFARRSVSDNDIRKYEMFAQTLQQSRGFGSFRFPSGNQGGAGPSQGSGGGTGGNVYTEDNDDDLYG

Row | Variant | effect of a mutation on the interaction
1 | MAEGGRAEPEEQERGSSRPRPPSARDLQLALAELYEDEMKCKSSKPDRSTPATCRSPRTPPHRLYSGDHKYDGLHIVQPPTGKIVNELFKEAREHGAVPLNEATRSSREDKTKSFTGGGYRLGNSFYKRSEYIYGENQLQDVQVLLKLWRNGFSLDDGELRPYSDPTNAQFLESVKRGETPLELQRLVHGAQVNLDMEDHQDQEYIKPRLRFKASSGEGQKLGSLTPEIVSTPSSPEEEDKSILNAAVLIDDSMPTTKIQIRLADGSRLVQRFNSTHRILDVRDFIVRSRPEFATTDFILVTSFPSKELTDETVTLQEADILNTVILQQLK [F215S] | disrupting interaction

Variants of: B2
Settings: with tera_rat Vcp
Target sequence in this assay (P46462 whole entry): as the sequence (P46462 whole entry) above

Row | Variant | effect of a mutation on the interaction
2 | MAEERQDALREFVAVTGAEEDRARFFLESAGWDLQIALASFYEDGGDEDIVTISQATPSSVSRGTAPSDNRVTSFRDLIHDQDEEEEEEEGQRFYAGGSERSGQQIVGPPRKKSPNELVDDLFKGAKEHGAVAVERVTKSPGETSKPRPFAGGGYRLGAAPEEESAYVAGERRRHSGQDVHVVLKLWKTGFSLDNGDLRSYQDPSNAQFLESIRRGEVPAELRRLAHGGQVNLDMEDHRDEDFVKPKGAFKASTGEGQKLGSTAPQVLNTSSPAQQAENEAKASSSILINEAEPTTNIQIRLADGGRLVQKFNHSHRISDIRLFIVDARPAMAATSFVLMTTFPNKELADENQTLKEANLLNAVIVQRLT [F253S] | disrupting interaction

Variants of: B2
Settings: with tera_mouse Vcp

Row | Variant | effect of a mutation on the interaction
3 | MAEERQDALREFVAVTGAEEDRARFFLESAGWDLQIALASFYEDGGDEDIVTISQATPSSVSRGTAPSDNRVTSFRDLIHDQDEEEEEEEGQRFYAGGSERSGQQIVGPPRKKSPNELVDDLFKGAKEHGAVAVERVTKSPGETSKPRPFAGGGYRLGAAPEEESAYVAGERRRHSGQDVHVVLKLWKTGFSLDNGDLRSYQDPSNAQFLESIRRGEVPAELRRLAHGGQVNLDMEDHRDEDFVKPKGAFKASTGEGQKLGSTAPQVLNTSSPAQQAENEAKASSSILINEAEPTTNIQIRLADGGRLVQKFNHSHRISDIRLFIVDARPAMAATSFVLMTTFPNKELADENQTLKEANLLNAVIVQRLT [F253S] | disrupting interaction
